Experimental data from patent US20220363777A1 (GSP ENTERPRISE, published 2022).

How the values were obtained:
[1] = target: T1, extracellular domain of human Cripto-1, soluble form, with N-terminal His-tag (human, limits assumed); assay: screening of a phage-displayed human antibody library
T1 construct: Prepared in soluble form by the method of Alam et al., Int J Mol Sci 2018; also called purified human Cripto-1; CR-1
T1 chain: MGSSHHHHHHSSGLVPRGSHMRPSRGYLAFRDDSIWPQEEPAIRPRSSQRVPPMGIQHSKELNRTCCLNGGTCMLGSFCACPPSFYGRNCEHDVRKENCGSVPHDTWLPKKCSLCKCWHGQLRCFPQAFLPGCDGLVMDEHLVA
Protocol: The extracellular domain of human Cripto-1 contains the amino acid sequence represented by SEQ ID NO: 11, and has a His-tag sequence having the amino acid sequence represented by SEQ ID NO: 12 at its N-terminus. The extracellular domain of human Cripto-1 was prepared in its soluble form in accordance with the method disclosed in Alam. et. al., Int J Mol Sci. 2018, 26; 19 (11). The antibody library used as a screening target is described in Sakai, K. et al., Biochemistry 46 (1): 253-62, and the subclass of the antibody is IgG.

[2] = target: T2, human Cripto-1 in human cancer tissue (tissue array BCN801) (human, UniProt P13385 31-150, GPI-anchor (thought to be bound to the cell membrane surface by GPI-anchors)); assay: immunostaining of a human cancer tissue array, ALEXA568-labeled anti-human IgG secondary antibody
T2 construct: whole, on cells; Endogenous protein detected by immunostaining of pancreas, thyroid, prostate, stomach, cervical, colorectal and breast cancer tissue; also called CR-1
T2 sequence (looked up): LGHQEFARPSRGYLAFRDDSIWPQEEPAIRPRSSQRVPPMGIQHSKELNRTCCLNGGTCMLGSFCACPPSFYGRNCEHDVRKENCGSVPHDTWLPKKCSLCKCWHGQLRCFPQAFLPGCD
Protocol: Immunostaining was performed on a human cancer tissue array (BCN801, US Biomax Inc.). The #35 clone was used as a primary antibody. ALEXA568-labeled anti-human IgG goat antibody (Invitrogen) was used as a secondary antibody to detect human Cripto-1 in each cancer tissue (pancreas cancer tissue, thyroid gland cancer tissue, prostate cancer tissue, stomach cancer tissue, cervical cancer tissue, colorectal cancer tissue, and breast cancer tissue). These cancer tissues contained cancer stem cells as well as cancer cells, and Cripto-1 was thought to be bound to the surface of the cell membrane of the cancer stem cells by GPI-anchors. In a negative control experiment, the signal background was confirmed by using only the secondary antibody. FIGS. 3 to 5 show the results.

binding result [1]: binds
binding result [2]: binds
B1: #35 clone antibody (human-derived anti-human Cripto-1 monoclonal antibody) (antibody, V domains shown)
VH: QVQLQQSGPGLVKPSQTLSLTCAISGNSVSSNSAAWNWIRRSPSRGLEWLGRTYYRSKWYNDYAVSVKSRITIKPDTSKNQFSLQLNSVTPEDTAMYYCARGFCSGGRCYSFDYWGPGTLVTVSS
VL: QSVLTQPASVSGSPGQSITISCTGTDSDVGAYGSASWYRHSPGKAPQLIIYDVTNRPSGVSNRFYGSKSGNTASLTISGLQAEDEADYYCQAWDSGIHVVFGGGTQLTVLG
notes: The library subclass is IgG; also called Clone #35
